Results taken from PMC4122391, “Analysis of Functions of VIP1 and Its Close Homologs in Osmosensory Responses of Arabidopsis thaliana”.

T1: GST-VIP1ΔN164 (Arabidopsis thaliana, UniProt Q9MA75 165-341)
T1 sequence: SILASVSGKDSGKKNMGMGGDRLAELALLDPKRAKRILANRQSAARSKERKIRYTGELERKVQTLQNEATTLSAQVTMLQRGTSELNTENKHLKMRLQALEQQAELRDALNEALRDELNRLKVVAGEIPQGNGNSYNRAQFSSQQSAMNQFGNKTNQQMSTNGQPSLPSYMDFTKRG

B1: A3 (dsDNA)
DNA 1: CTCTCAAATTAGCTGGCTCCA
DNA 2: TGGAGCCAGCTAATTTGAGAG
B2: A1 (dsDNA)
DNA 1: CTCTCAAATGAGCTGTCTCTC
DNA 2: GAGAGACAGCTCATTTGAGAG

Tests used:
GST-VIP1ΔN164 [1] = target: T1, GST-VIP1ΔN164; experiment: competition; EMSA, CYP707A1 probe; inhibits to same extent as A1; Gel shift with DIG-labeled probes as in cited ref. 17; competitors 0.5 µM unless stated; binding buffer, pH and temperature not given; conditions: protein: recombinant; tags: N-terminal GST; chain copies: 2; blunt
GST-VIP1ΔN164 [2] = target: T1, GST-VIP1ΔN164; experiment: competition; EMSA, CYP707A1 probe, competitor 0.5 µM; Gel shift with DIG-labeled probes as in cited ref. 17; competitors 0.5 µM unless stated; binding buffer, pH and temperature not given; conditions: protein: recombinant; tags: N-terminal GST; chain copies: 2; blunt

Row | Binder | binding result (GST-VIP1ΔN164 [1]) | binding result (GST-VIP1ΔN164 [2])
1 | B1 | binds | –
2 | B2 | – | binds
